Measured values reported in publication PMC2754721 (Biochemistry, 2009).
Changes are numbered by the printed parent chain. Numbers in names are those of the source.

B1: D402N nitroalkane oxidase (enzyme)
chain: MVDFKLSPSQLEARRHAQAFANTVLTKASAEYSTQKDQLSRFQATRPFYREAVRHGLIKAQVPIPLGGTMESLVHESIILEELFAVEPATSITIVATALGLMPVILCDSPSLQEKFLKPFISGEGEPLASLMHSEPNGTANWLQKGGPGLQTTARKVGNEWVISGEKLWPSNSGGWDYKGADLACVVCRVSDDPSKPQDPNVDPATQIAVLLVTRETIANNKKDAYQILGEPELAGHITTSGPHTRFTEFHVPHENLLCTPGLKAQGLVETAFAMSAALVGAMAIGTARAAFEEALVFAKSDTRGGSKHIIEHQSVADKLIDCKIRLETSRLLVWKAVTTLEDEALEWKVKLEMAMQTKIYTTDVAVECVIDAMKAVGMKSYAKDMSFPRLLNEVMCYPLFNGGNIGLRRRQMQRVMALEDYEPWAATYGSSKVDKSRL
B2: S276A nitroalkane oxidase (enzyme)
chain: B1 chain with S276A, N402D

Target: the molecule itself
Experiment: crystal structure

Row | Protein | stoichiometry N [subunits]
1 | B1 | 4
2 | B2 | 4
